Tests used:
[1] = test system: SalI restriction endonuclease; test: cleavage_in_vitro; conditions: 125 mM NaCl
[2] = test system: SWI/SNF complex (Saccharomyces cerevisiae); test: cleavage_in_vitro; conditions: kcat of nucleosome remodeling, SalI-coupled; 1 mM ATP, 125 mM NaCl, 2.5 mM MgCl2; no stimulation without ATP or with ATPgS

Substance | activity ([1]; second slow phase, nucleosomal DNA, Kconf 3.2e-3, 2.5 mM MgCl2) | activity [2] | activity ([1]; naked DNA, 2.5 mM MgCl2, 37 C, +/-0.03e-4)
11-mer 5S SalI nucleosome array (pCL7c template with histone octamers) | 9.19e-07 U^-1 min^-1 | 0.22 min⁻¹ | –
11-mer 5S SalI array template (pCL7c) | – | – | 0.000286 U^-1 min^-1
